Assay [1] concerns the target T1, human OSCAR-Fc (fusion of ectodomain of human-derived OSCAR protein and Fc domain of human immunoglobulin … (human)).
T1 construct: also called hOSCAR-Fc; hOSCAR
Nature of the assay: BLI (Octet); BLI (Octet); mother clone D11. As for the experimental part: Therefore, based on intensities of the ELISA signals, expression levels, stability, and activity of the clones whose affinity was matured from the clone D11, D11-B9 was selected, and relative affinity thereof to OSCAR was re-evaluated by way of serial dilution. […] To measure a dissociation constant more accurately, analysis was performed by measuring bio-layer interferometry (BLI) signals using an Octet device. […] In the same manner as in the serial dilution ELISA, the clone D11 seems to have a lower affinity to hOSCAR. A dissociation constant was about 5.6 nM, and a lower response signal was measured (FIG. 10).
Background: Biolayer interferometry detects binding as a change in optical thickness at a sensor tip.

In assay [2] the target is T1, human OSCAR-Fc (fusion of ectodomain of …). Nature of the assay: serial dilution ELISA, 4-parameter logistic curve fit.
Assay [3] shares this target. As to the kind of experiment: bio-layer interferometry (Octet), antibody as ligand on the sensor, hOSCAR as analyte.
Assay [4] addresses T2, mouse OSCAR-Fc (fusion of ectodomain of mouse-derived OSCAR protein and Fc domain of human immunoglobulin … (mouse)).
T2 construct: also called mOSCAR-Fc; mOSCAR
Nature of the assay: bio-layer interferometry (Octet), antibody as ligand on the sensor, mOSCAR as analyte.

Assay [5] has as its target T1, human OSCAR-Fc (fusion of ectodomain of …). Nature of the assay: BLI (Octet).
The target in assay [6] is T2, mouse OSCAR-Fc (fusion of ectodomain of …). Nature of the assay: BLI (Octet).
In assay [7] the target is T1, human OSCAR-Fc (fusion of ectodomain of …). As to the kind of experiment: BLI (Octet); BLI (Octet); hOSCAR.
Assay [8] addresses T2, mouse OSCAR-Fc (fusion of ectodomain of …). Nature of the assay: BLI (Octet); BLI (Octet); mOSCAR.
The target in assay [9] is T1, human OSCAR-Fc (fusion of ectodomain of …). Nature of the assay: serial dilution ELISA (re-evaluation); re-evaluation by serial dilution (FIG. 10); hOSCAR.
Assay [10] deals with T2, mouse OSCAR-Fc (fusion of ectodomain of …). Nature of the assay: serial dilution ELISA (re-evaluation); re-evaluation by serial dilution (FIG. 10); mOSCAR. For orientation: ELISA stands for enzyme-linked immunosorbent assay.
Assay [11] has as its target T1, human OSCAR-Fc (fusion of ectodomain of …). As to the kind of experiment: serial dilution ELISA, 4-parameter logistic curve fit; first serial dilution ELISA of the IgG clones (FIG. 9). As for the experimental part: Next, the EC₅₀ values of the clones were calculated using a 4-parameter logistic curve fit from serial dilution ELISA.
The target is the same in assay [12]. Nature of the assay: ELISA, periplasm extract of the scFv clone on coated hOSCAR-Fc. As for the experimental part: (§1) To select anti-OSCAR antibodies via ELISA screening, first, 200 μL of SB-carbenicillin was added to each well of a 96-well microplate, and E. coli colonies obtained in the third and fourth panning processes were added thereto, followed by incubation at 37° C. for 2 hours while stirring. Using a plate replication pin tool, the cultured clones were transferred to a new microplate, IPTG was added to each well in which E. coli was cultured to a final concentration of 1 mM, followed by incubation […] while stirring. Then, the microplate was centrifuged and the supernatant discarded, and then precipitated E. coli was suspended in 40 μL of ice-cold 1× TES (20% sucrose, 50 mM Tris, 1 mM EDTA, pH 8.0) per well. Then, […] was added to each well, mixed well, and left on ice for 30 minutes, followed by centrifugation of the microplate to obtain a periplasm extract.
(§2) Subsequently, 25 μL of human and mouse OSCAR-Fc and human IgG each diluted in PBS to a concentration of 2 μg/mL were added to each well of a 96-well plate for ELISA and left to stand at 37° C. for 1 hour such that an antigen was adsorbed onto the surface of the well. […] Once a blue color was clearly developed, reaction was terminated by adding 25 μL of 1 N aqueous sulfuric acid solution to each well, and a color change signal was measured using absorbance at a wavelength of 450 nm. […]

In assay [13] the target is T2, mouse OSCAR-Fc (fusion of ectodomain of …). Nature of the assay: ELISA, periplasm extract of the scFv clone on coated mOSCAR-Fc. Here is the method: as §1, §2
The target in assay [14] is T1, human OSCAR-Fc (fusion of ectodomain of …). As to the kind of experiment: competitive ELISA, IgG premixed with OSCAR-Fc, on coated collagen. As for the experimental part:
(§3) Specifically, 25 μL of collagen (collagen type I from rat tail) diluted with PBS to a concentration of 2 μg/mL was added to an ELISA plate and adsorbed onto the ELISA plate by leaving to stand at 4° C. overnight. The surface onto which collagen was not adsorbed was protected by using a 3% milk powder solution. Subsequently, the purified anti-OSCAR IgG antibody and human or mouse OSCAR-Fc [fusion of ectodomain of human and mouse-derived OSCAR protein and Fc domain of human immunoglobulin gamma 1 (human IgG1)][human-derived: hOSCAR-Fc (SEQ ID NO: 4) and mouse-derived: mOSCAR-Fc (SEQ ID NO: 5)] were mixed to have concentrations of 2 μg/mL and 1 μg/mL, respectively, for 1.5 hours to bind to each other. Then, the mixture was added to the collagen-adsorbed ELISA plate from which the powdered milk solution was removed in an amount of […] and left to stand at room temperature for 1.5 hours. Subsequently, the plate was washed three times with PBST to remove unreacted antibodies and OSCAR-Fc, and 25 μL of an HRP-conjugated anti-human IgG antibody diluted at 1:3,000 was added to each well and left to stand at room temperature for 1 hour to detect OSCAR-Fc bound to collagen. […] Absorbance was measured at 450 nm to analyze the degree of OSCAR-collagen binding (FIG. 2).

The target in assay [15] is T2, mouse OSCAR-Fc (fusion of ectodomain of …). The assay is described as above. As for the experimental part: as §3

We go through 4 molecules from patent US20230399397A1 (EWHA UNIVERSITY INDUSTRY COLLABORATION FOUNDATION, published 2023).

A value given as a limit tells only on which side of the number the result lay.

B1: anti-OSCAR antibody D11 (IgG) (antibody, V domains shown)
VH: EVQLLESGGGLVQPGGSLRLSCAASGFTFSDYYWTWVRQAPGKGLEWVSGSPVFGAANYAQNFQGRFTISRDNSKNTLYLQMNSLRAEDTAVYYCAKAGFTGGHFDIWGQGTLVTVSS
VL: QSVLTQPPSASGTPGQRVTISCSGSSSNIGNNYVSWYQQLPGTAPKLLIYGNSNRPSGVPNRFSGSKSGTSASLAISGLRSEDEADYYCQSYDSSSWLFGGGTKLTVLG
notes: also called clone D11; mother-clone D11
As to B1, the Kd (as a rule, the constant that tells how readily two partners part at equilibrium) is approximately 5.6 nM in [1], 5.61 nM in assay [3] and 2.87 nM in [4]. The midpoint of the response in assay [2], the EC50, lay at 520 nM.

B2: anti-OSCAR antibody D11-B9 (IgG) (antibody, V domains shown)
VH: EVQLLESGGGLVQPGGSLRLSCAASGFTFSDYYWTWVRQAPGKGLEWVSGSPVFGAANYAQNFQGRFTISRDNSKNTLYLQMNSLRAEDTAVYYCAKAGIPGHFDIWGQGTLVTVSS
VL: B1 VL
notes: also called clone D11-B9; D11-69 (misprint in the text)
With B2, the “fold affinity against clone D11” value in assay [5] is 10 times; in assay [6], not below 10 times. Moreover, the Kd in assay [7] was 0.4 nM; in assay [8], 0.2 nM; in assay [3], 0.41 nM; in assay [4], 0.222 nM. The EC50 (usually the midpoint of the concentration-response curve) in [9] amounted to 36.8 nM; in assay [10], 36.8 nM; in assay [11], 1.5 nM.

B3: anti-OSCAR scFv B4 (scFv, V domains shown)
VH: EVQLLESGGGLVQPGGSLRLSCAASGFTFSDYAMSWVRQAPGKGLEWVSGIYHGGGNIYYADSVKGRFTISRDNSKNTLYLQMNSLRAEDTAVYYCARAPDEFDYWGQGTLVTVSS
VL: QSVLTQPPSASGTPGQRVTISCSGSSSNIGNNSVTWYQQLPGTAPKLLIYYNSHRPSGVPDRFSGSKPGTSASLAISGLRSEDEADYYCGAWDSSLNGYVFGGGTKLTVL
notes: Single-chain Fv; Tested as periplasm extract
On to B3, for which the binding result in assay [12] and in assay [13] was “binds” each time.

B4: anti-OSCAR antibody B4 (IgG) (antibody, V domains shown)
VH: B3 VH
VL: QSVLTQPPSASGTPGQRVTISCSGSSSNIGNNSVTWYQQLPGTAPKLLIYYNSHRPSGVPDRFSGSKPGTSASLAISGLRSEDEADYYCGAWDSSLNGYVFGGGTKLTVLG
notes: also called clone antibody B4
For the molecule B4, the binding result in assay [14] and in assay [15] was “binds” throughout.
